Data reported in article PMC10948894, “Cryo-EM structures of type IV pili complexed with nanobodies reveal immune escape mechanisms” (Nature Communications, 2024).

T1: type IV pili of the N. meningitidis 8013 pglAON* strain (SB pilin with the GATDH-Gal double sugar on S63) (Neisseria meningitidis 8013 (serogroup …, strain, GATDH with a second sugar (galactose in position 3) on serine 63))
T1 construct: numbers count on: the mature protein; also called GATDH-GLA; GATDH-GAL variant
T1 chain: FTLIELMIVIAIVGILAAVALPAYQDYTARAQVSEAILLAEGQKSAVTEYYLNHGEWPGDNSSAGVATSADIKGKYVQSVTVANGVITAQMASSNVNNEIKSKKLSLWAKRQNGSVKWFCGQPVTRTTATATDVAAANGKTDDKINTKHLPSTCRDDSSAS

B1: C24 nanobody (VHH)
VHH: QLQLVESGGGLVQPGGSLRLSCASSGFRSDYYAIVWFRQAPGKEREGVSCISTSGKTTIYADSVKGRFTISRDNAKNTVYLQMNSLKPEDTAVYYCAADFRGSRLSDVCSYSSMDYWGKGTLATVSS
B2: C24_S112-114G nanobody (VHH)
VHH: QLQLVESGGGLVQPGGSLRLSCASSGFRSDYYAIVWFRQAPGKEREGVSCISTSGKTTIYADSVKGRFTISRDNAKNTVYLQMNSLKPEDTAVYYCAADFRGSRLSDVCGYGSMDYWGKGTLATVSS
notes: as the chain of m8 (C24) with the two stated changes; also called C24 S112G S114G double mutant; source: E. coli BL21 (DE3)/pLysS (plasmid pET26b-C24 mutated), purified; not shown: His tag, C-terminal, kept
B3: F10 nanobody (VHH)
VHH: QLQLVESGGGLVQPGGSLRLSCAASGFTLDQYAIGWFRQAPGKEREGVSCISSRGGATNYAHSVKGRFTISRDNAKNTVYLQMNSLKPEDTAVYYCAAGVYTIVTGTGPEDGMDYWGKGTLVTVSS

What was measured:
[1] = molecular target: type IV pili of N. meningitidis 8013, SB sequence type pilin PilE with GATDH on S63 and G3P on S69 (Neisseria meningitidis); experiment: cryo-EM structure; purified pili 10 µg/ml with nanobody 50 µg/ml, vitrified at 4 °C; helical refinement
[2] = molecular target: type IV pili of N. meningitidis 8013, SB sequence type pilin PilE with GATDH on S63 and G3P on S69 (Neisseria meningitidis)
[3] = molecular target: T1, type IV pili of the N. meningitidis …; experiment: immunostaining of cells or tissue; as a1 but nanobody 5 µg/ml and anti-His tag 17.5 µg/ml (experiments with C24_S112-114G, Fig. 7f and g); settings: one partner purified

Row | Binder | stoichiometry N [1] | inhibition of type IV pili-dependent bacterial auto-aggregation (blocks the pilus-pilus interaction, m1 with m1); indicated amounts of nanobody, Fig. 3c [2] [µg/mL] | binding result [3]
1 | B1 | 1 | 5 | –
2 | B2 | – | – | binds
3 | B3 | 1 | 5 | –
